Data taken from patent EP4707390A1 (PeptiDream Inc., dated 2026).

Molecular target: T1, Recombinant human IgG1 Fc protein (110-HG, R&D Systems) (human, UniProt P01857-1 100-330 = IgG part)
T1 construct: domain: Fc; Bought protein; also called human IgG Fc protein; biotinylated Fc
Test: display assay, conjugates on linker 1 or 3, biotinylated Fc on streptavidin magnetic beads against beads without Fc, real-time PCR

B1: Fc-binding peptide encoded by the translation region of SEQ ID NO: 26 (peptide)
peptide: MPDCAYHKGELVWCTGGGGSS
modifications: C-terminus covalently bonded to the puromycin of the linker; sample treated with oxidized glutathione after reverse transcription
notes: Tested as an mRNA/cDNA-linker-peptide conjugate on monovalent linker 1 or divalent linker 3
Question: Does B1 bind?
Answer: binds
